Measurements: patent publication US20150098933

Experiments:
[1] = target: T1, ekLAL (rhLAL containing the FLAG affinity and ek cleavage site, designed to give TLAL-G77), produced in HEK293 cells
T1 chain: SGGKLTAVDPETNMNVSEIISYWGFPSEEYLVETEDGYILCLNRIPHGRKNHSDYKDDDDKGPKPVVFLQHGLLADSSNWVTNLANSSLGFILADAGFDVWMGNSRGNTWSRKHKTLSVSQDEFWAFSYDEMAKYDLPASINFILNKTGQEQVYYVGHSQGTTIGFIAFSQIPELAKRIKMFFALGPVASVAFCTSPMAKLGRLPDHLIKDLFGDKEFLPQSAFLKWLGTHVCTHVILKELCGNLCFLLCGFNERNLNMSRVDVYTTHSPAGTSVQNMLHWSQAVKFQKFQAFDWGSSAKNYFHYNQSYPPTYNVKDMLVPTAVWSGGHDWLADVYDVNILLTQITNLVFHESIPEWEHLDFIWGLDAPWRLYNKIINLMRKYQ

[2] = target: T2, ekLAL (rhLAL containing the FLAG affinity and ek cleavage site, designed to give TLAL-K76), produced in HEK293 cells
T2 chain: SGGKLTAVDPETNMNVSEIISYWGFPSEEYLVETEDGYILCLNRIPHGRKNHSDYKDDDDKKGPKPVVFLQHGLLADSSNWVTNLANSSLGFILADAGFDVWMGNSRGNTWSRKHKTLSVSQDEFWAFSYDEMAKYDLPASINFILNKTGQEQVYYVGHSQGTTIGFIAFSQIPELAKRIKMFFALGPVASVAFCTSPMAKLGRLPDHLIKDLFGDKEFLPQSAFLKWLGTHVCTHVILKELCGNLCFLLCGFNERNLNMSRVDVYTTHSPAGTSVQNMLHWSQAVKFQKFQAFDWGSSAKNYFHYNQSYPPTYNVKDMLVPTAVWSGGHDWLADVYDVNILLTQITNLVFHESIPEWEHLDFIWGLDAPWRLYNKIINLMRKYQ

[3] = target: T3, full-length rhLAL produced in HEK293 cells
T3 chain: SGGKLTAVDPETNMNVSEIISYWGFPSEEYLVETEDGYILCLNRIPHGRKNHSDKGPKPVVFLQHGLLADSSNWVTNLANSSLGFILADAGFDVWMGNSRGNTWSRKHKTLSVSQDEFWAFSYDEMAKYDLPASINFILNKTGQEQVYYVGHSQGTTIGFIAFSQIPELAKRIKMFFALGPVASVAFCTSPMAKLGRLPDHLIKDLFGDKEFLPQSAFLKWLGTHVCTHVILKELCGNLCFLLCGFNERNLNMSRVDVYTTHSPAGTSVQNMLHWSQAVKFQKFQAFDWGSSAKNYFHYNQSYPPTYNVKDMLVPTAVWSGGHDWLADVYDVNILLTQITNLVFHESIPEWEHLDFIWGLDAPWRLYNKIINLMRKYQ

[4] = target: T4, rhLAL protein produced from transgenic chicken
T4 chain: T3 chain

B1: bovine enterokinase (EC 3.4.21.9) (protein)
chain: IVGGSDSREGAWPWVVALYFDDQQVCGASLVSRDWLVSAAHCVYGRNMEPSKWKAVLGLHMASNLTSPQIETRLIDQIVINPHYNKRRKNNDIAMMHLEMKVNYTDYIQPICLPEENQVFPPGRICSIAGWGALIYQGSTADVLQEADVPLLSNEKCQQQMPEYNITENMVCAGYEAGGVDSCQGDSGGPLMCQENNRWLLAGVTSFGYQCALPNRPGVYARVPRFTEWIQSFLH
proteolytic cleavage (ek digestion, 6 days at room temperature, SDS-PAGE) [1]: approximately 50% cleavage into TLAL-G77
proteolytic cleavage (ek digestion, 6 days at room temperature) [2]: >70% cleavage into TLAL-K76
proteolytic cleavage (molecular weight before and after ek digestion) [3]: non-specific ek cleavage did not occur during the digestion reaction
proteolytic cleavage (molecular weight before and after ek digestion) [4]: non-specific ek cleavage did not occur during the digestion reaction
